Values of other authors as cited in patent US20250101104A1, “BISPECIFIC MOLECULE WITH TUNABLE AFFINITY TO A TARGETED ANTIGEN” (MABSWITCH INC., priority 2022, published 2025).

System: AML cell lines and primary AML blasts
Settings: in vitro and in NOD SCID mice injected with human AML

B1: MGDO06: CD3×CD123 DART (Macrogenics) (antibody, chains of the INN, looked up, V domains shown)
VH: EVQLVQSGAELKKPGASVKVSCKASGYTFTDYYMKWVRQAPGQGLEWIGDIIPSNGATFYNQKFKGRVTITVDKSTSTAYMELSSLRSEDTAVYYCARSHLLRASWFAYWGQGTLVTVSS
VL: DFVMTQSPDSLAVSLGERVTMSCKSSQSLLNSGNQKNYLTWYQQKPGQPPKLLIYWASTRESGVPDRFSGSGSGTDFTLTISSLQAEDVAVYYCQNDYSYPYTFGQGTKLEIK
VH2: EVQLVESGGGLVQPGGSLRLSCAASGFTFSTYAMNWVRQAPGKGLEWVGRIRSKYNNYATYYADSVKDRFTISRDDSKNSLYLQMNSLKTEDTAVYYCVRHGNFGNSYVSWFAYWGQGTLVTVSS
VL2: QAVVTQEPSLTVSPGGTVTLTCRSSTGAVTTSNYANWVQQKPGQAPRGLIGGTNKRAPWTPARFSGSLLGGKAALTITGAQAEDEADYYCALWYSNLWVFGGGTKLTVL
modifications: DART
killing of AML cell lines and primary AML blasts: dose-dependent killing
